Non-standard residues stand in square brackets, D forms with d. No end group written: not given here. Aib = CC(C)(N)C(=O)O
T1: human GIP receptor (Homo sapiens, UniProt P48546)
T1 construct: expressed in transfected cells; host or cells: CHO (Chinese hamster ovary) cells
T1 sequence (P48546 22-466): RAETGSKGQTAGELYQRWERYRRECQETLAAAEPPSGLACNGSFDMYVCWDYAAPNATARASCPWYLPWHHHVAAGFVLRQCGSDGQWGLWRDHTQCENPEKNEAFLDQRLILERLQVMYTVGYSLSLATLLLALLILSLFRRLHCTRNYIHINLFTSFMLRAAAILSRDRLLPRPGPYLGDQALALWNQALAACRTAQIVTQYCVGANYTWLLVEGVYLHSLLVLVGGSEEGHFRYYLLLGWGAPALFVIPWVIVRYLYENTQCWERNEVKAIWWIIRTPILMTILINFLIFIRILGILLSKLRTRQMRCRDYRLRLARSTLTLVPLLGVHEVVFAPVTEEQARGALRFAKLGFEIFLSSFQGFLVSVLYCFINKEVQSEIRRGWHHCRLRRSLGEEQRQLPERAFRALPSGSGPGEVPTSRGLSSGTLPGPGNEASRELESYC

T2: human GIP receptor (human, UniProt P48546 22-466)
T2 sequence (looked up): T1 sequence (P48546 22-466)


Experiments:
human GIP receptor [1] = target: T1, human GIP receptor; experiment: In vitro activity of long-acting GIP conjugate: cAMP accumulation (LANCE cAMP kit) in CHO cells expressing human GIP receptor; format: cell-based; conditions: relative potency from cAMP EC50 vs human GIP, PEG-immunoglobulin Fc conjugates
Procedure: To measure the activity of the long-acting GIP conjugates prepared in Example 3, a method of measuring cell activity in vitro using a cell line transformed with the GIP receptor was used in the same manner as in Example 2.
In detail, to measure the activity of the long-acting GIP derivatives in the human GIP receptors, human GIP was serially diluted from 16 nM to 0.000015 nM by 4 folds, and the long-acting GIP derivatives prepared in Example 1 were each serially diluted from 50 nM to 0.000048 nM by 4 folds. The culture medium was removed from the cultured CHO cells where the human GIP receptors were expressed, 5 μl of each of the serially diluted materials was added to the cells, and then, 5 μl of buffer containing cAMP antibody was added thereto, followed by incubation at room temperature for 15 minutes. Next, the cells were lysed by adding 10 μl of detection mix containing cell lysis buffer, and then allowed for a reaction at room temperature for 90 minutes. The cell lysate obtained by the completion of the reaction was applied to the LANCE cAMP kit (PerkinElmer, USA) to calculate the EC50 value through the accumulated cAMP to be compared with each other.

human GIP receptor [2] = target: T2, human GIP receptor; experiment: cell-based or functional assay

Molecule | In vitro activity of long-acting GIP derivative compared to human native GIP in human GIP receptor (%) (human GIP receptor [1]) | In vitro activity of GIP derivative compared to human native GIP in human GIP receptor (%) (cAMP EC50, CHO cells expressing human GIP receptor) (human GIP receptor [2])
YAibEGT FISDYSIALEKQAQQDFVNWLLAGGPSSGAPPPSC (Y[Aib]EGTFISDYSIALEKQAQQDFVNWLLAGGPSSGAPPPSC) [SEQ ID NO: 17] | 153.2 | 
YAibEGT FISDY SIAibLD KQAAAib EFVNW LLAibGH PSSGA PPPSC (Y[Aib]EGTFISDYSI[Aib]LDKQAA[Aib]EFVNWLL[Aib]GHPSSGAPPPSC) [SEQ ID NO: 24] | 123.3 | 
YAibEGT FISDYSIAMDAIAQQDFVNWLLAQKGKKNDWKHNITQC (Y[Aib]EGTFISDYSIAMDAIAQQDFVNWLLAQKGKKNDWKHNITQC) [SEQ ID NO: 11] | 84.8 | 
YAibEGT FISDY SIAibLD KQAAAib EFVNW LLAibGG PSSGA PPPSC (Y[Aib]EGTFISDYSI[Aib]LDKQAA[Aib]EFVNWLL[Aib]GGPSSGAPPPSC) [SEQ ID NO: 21] | 148.5 | 
Y[Aib]EGTFISDYSIQMDAIAQQDFVNWLLAGGPSSGAPPPSC (not fully specified) [GIP derivative of SEQ ID NO: 5] |  | 12.1
Y[Aib]EGTFISDYSIYLDKQAA[Aib]EFVNWLLAQKGKKNDWKHNITQC (not fully specified) [GIP derivative of SEQ ID NO: 12] |  | 49.2
Y[Aib]EGTFISDYSIYLDKQAA[Aib]EFVNWLLAQKC (not fully specified) [GIP derivative of SEQ ID NO: 13] |  | 31.1
Y[Aib]EGTFISDYSIAMDKIAQQDFVNWLLAQKPSSGAPPPSC (not fully specified) [GIP derivative of SEQ ID NO: 15] |  | 31.1
Y[Aib]EGTFISDYSIYMDAIAQQDFVNWLLAGGPSSGAPPPSC (not fully specified) [GIP derivative of SEQ ID NO: 4] |  | 10.5
Y[Aib]EGTFISDYSIYLDAQAAKEFIAWLLAGGPSSGAPPPSC (not fully specified) [GIP derivative of SEQ ID NO: 10] |  | 13.9
Y[Aib]EGTFISDYSIYLDAQAA[Aib]EFVNWLLAQKC (not fully specified) [GIP derivative of SEQ ID NO: 14] |  | 17.4
Y[Aib]EGTFISDYSIYLDAQAQQDFVNWLLAGGPSSGAPPPSC (not fully specified) [GIP derivative of SEQ ID NO: 7] |  | 19.6
Y[Aib]EGTFISDYSIYLDAQAAKDFVNWLLAGGPSSGAPPPSC (not fully specified) [GIP derivative of SEQ ID NO: 9] |  | 2
Y[Aib]EGTFISDYSIYLDAQAA[Aib]DFVNWLLAGGPSSGAPPPSC (not fully specified) [GIP derivative of SEQ ID NO: 8] |  | 1.9
Y[Aib]EGTFISDYSI[Aib]LDKQAA[Aib]EFVNWLL[Aib]GHPSSGAPPPSC (not fully specified) [GIP derivative of SEQ ID NO: 24] |  | 183
Y[Aib]EGTFISDYSIYLDAIAQQDFVNWLLAGGPSSGAPPPSC (not fully specified) [GIP derivative of SEQ ID NO: 6] |  | 17.4
Y[Aib]EGTFISDYSIYLDKQAA[Aib]EFVQWLI[Aib]GGPSSGAPPPSC (not fully specified) [GIP derivative of SEQ ID NO: 25] |  | 78.3
Y[Aib]EGTFISDYSIYLDKQAA[Aib]EFVQWLIAGHPSSGAPPPC (not fully specified) [GIP derivative of SEQ ID NO: 26] |  | 66.7
Y[Aib]EGTFISDYSIYLDKQAAQEFVNWLLAQKPSSGAPPPSC (not fully specified) [GIP derivative of SEQ ID NO: 18] |  | 13.6
Y[Aib]EGTFISDYSI[Aib]LDKQAA[Aib]EFVNWLL[Aib]GGPSSGAPPPSC (not fully specified) [GIP derivative of SEQ ID NO: 21] |  | 123
Y[Aib]EGTFISDYSIYLDKQAA[Aib]EFVNWLL[Aib]GHPSSGAPPPSC (not fully specified) [GIP derivative of SEQ ID NO: 19] |  | 66.7
Y[Aib]EGTFISDYSIYLDKQAQKEFVNWLL[Aib]GGPSSGAPPPSC (not fully specified) [GIP derivative of SEQ ID NO: 23] |  | 87.6
Y[Aib]EGTFISDYSIAMDAIAQQDFVNWLLAQKGKKNDWKHNITQC (not fully specified) [GIP derivative of SEQ ID NO: 11] |  | 122
Y[Aib]EGTFISDYSI[Aib]MDAIAQQDFVNWLLAGGPSSGAPPPSC (not fully specified) [GIP derivative of SEQ ID NO: 3] |  | 15.6
Y[Aib]EGTFISDYSIAMDGIAQQDFVNWLLAQKPSSGAPPPSC (not fully specified) [GIP derivative of SEQ ID NO: 16] |  | 11.3
Y[Aib]EGTFISDYSIALEKQAQQDFVNWLLAGGPSSGAPPPSC (not fully specified) [GIP derivative of SEQ ID NO: 17] |  | 111
Y[Aib]EGTFISDYSIAMDAIAQQDFVNWLLAQKPSSGAPPPSC (not fully specified) [GIP derivative of SEQ ID NO: 1] |  | 49.3
Y[Aib]EGTFISDYSIAMDAIAQQDFVNWLLAGGPSSGAPPPSC (not fully specified) [GIP derivative of SEQ ID NO: 2] |  | 13.9
Y[Aib]EGTFISDYSIYLDKQAA[Aib]EFVNWLLAGHPSSGAPPPSC (not fully specified) [GIP derivative of SEQ ID NO: 22] |  | 71.6
Y[Aib]EGTFISDYSIYLDKQAA[Aib]EFVNWLL[Aib]GGPSSGAPPPSC (not fully specified) [GIP derivative of SEQ ID NO: 20] |  | 75.3
